Consider one substance from PMC12051053.

The assay has as its target H3K9ac nucleosome with 147 bp DNA.

On to “G60A SIRT6 (from UniProt Q8N6T7 2-355) (enzyme)”, for which the Km for the nucleosome substrate in the Western blot-based deacylation assay was 0.088 µM.
